# Laboratory results published in the nanobody polyreactivity screen of Harvey et al. (2022).
# Experiment: yeast display, Sf9 membrane polyspecificity reagent, FACS + sequencing; frameworks hold sequencing errors
# In short: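 Using colony PCR, genes from sorted yeast display clones were amplified, then sequenced on MiSeq at 2 × 250 and filtered by CDR length. The clones had been stained with 10% biotinylated, detergent-solubilized Sf9 membrane reagent for 1 hour at 4 °C and sorted by FACS into low and high (top ~1%) gates on anti-HA and streptavidin fluorescence. Polyreactivity labels come from the gate of origin.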
row,Sequence,polyreactivity (PSR sort gate)
1,QVQLVESVGGLVQAGCSLRLSCGASGRIFPWYAMGWYRPAPGKERELVAAIRWRGGGTYYADSVKGRFTISRDNAKNTVYLQMNSLKPEDTAVYYCSARRPAKGMGYWGQGTQVTVSS,high polyreactivity
2,QFQLVESGGGLVQAGGSLRLSCAASGSIFDAYAMGWYRQAPGKERELVPAITYSGGSTYYADSVKGRFTISRDNAKNTVYLQMNSLKPEDTAVYYCNTDSRVRTWFRAFTFDSWGQGTQVTVSS,low polyreactivity
3,QVQLVESGGGLVQAGGSLRLSCAASGRIFVYNAMGWYRQAPGKERELVAAISKGGGSTYYADSVKGRFTISRDNAKNTVYLQMNSLKPEDTAVYYCAAVVSGRYWGKKITYDYWGQGTQVSVSS,high polyreactivity
4,QVQLVESGGGLVQAGGSLRLSCAASGSTFRVYAMGWYRQAPGKERELVAAISWSAGSTYYADSVKGRFTISRDNAKNTVYLQMNSLKPEDTAVYYCNADPDRYDWYTYLYLADYWGQGTQVTVSS,low polyreactivity
5,QVQLVESGGGLVQAGGSLRLSCAASGSIFKVYAMGWYRQAPGKERELVAAITGGGRTYYADSVKGRFTISRDNAKNTVYLQMNSLKPEDTAVYYCNAVRGGYHVRYDYWGQGTQVTVSS,high polyreactivity
6,QVQLVESGGGLVQAGGSLRLSCAASGFIFGPYTMGWYRQAPGKERELVAAINNSGSTNYADSVKGRFTISRDNAKNTVYLQMNCLKPEDTAVYFCAAEPIIFVRYDYWGQGTQVTVSS,low polyreactivity
7,QVQLVESGGGLVQAGGSLRLSCAASGRIFQDYAMGWYRQPPGKERELVAAISSSGVRTYYADSVKGRFTISRDNAKNTVYVQMNSLKPEDTAVYYCATGYIFRYRQSAYVYWGQGTQVTVSS,high polyreactivity
8,QVQLVESGGGLVQAGGSLRLSCAASGRTFQYYAMGWYRQAPGKERELVAAISSRGGSTYYADSVKGRFTISRDNAKNTVYLQMNSLKPEDTAVYYCAAYVLPRQRVRSDYWGQGTQVTVSS,high polyreactivity
9,QVQLVESGGGLVQAGGSLRLSCAASGSIFSYYALGWYRQAPGKERELVAAISYSGGTTYYADSVKGRFTISRDNAKNTVYLQMNSLKPEDTAVYYCAAQWWWNRPVRYEYWGQGTQVTVSS,low polyreactivity
10,QVQLVESGGGLVQAGGSLRLSCAASGSIFPSNAMGWYRQAPGKERELVAAINRDGITNYADSVKGRFTISRDNAKNTVYLQMNSLKPEDTAVYYCNAYNYDFYASFWYEVDYWGLGTQVTVSS,low polyreactivity
11,QVQLVESGGALVQAGGSLRLSCAASGSTFKVYAMGWYRQAPGKERELVAAISFSGGTTYYADSVNGRFTISRDYAKNTVSLQRNSLKPEDTAVFYCAADGSTWYSYYYWGLGTQVTVSS,high polyreactivity
12,QVHLVESGGGLVQAGGSLRLSFAAYGSIFIQYVMGWYRQAPGKERELVAAISRRGGSTYYADSVKGRFTISRDNAKNTVYLHMNSLKPEDTAVYYCAAGSAYSIGYYWGQGTQVTVSS,high polyreactivity
13,QVQLVESGGGLVQAGGSLRLSCAASGLTVGGNVMGWYRQAPGKERELVAAISRSGDRTYYADSVKGRFTISRDNAKNTVYLQMNSLKPEDTAVYYCAVRVLYRQVFRYDYWGQGTQVTVSS,high polyreactivity
14,EEELVDSGGGLVQAGGSLRLSCSAYGSTFRDYAMGWYRQAPGKERELVAAITSGGTTDYADSVKGRFPISRDNAKNTVYLQMNSLKPEDTAVYYCNKDGVVAGYQYDYWGQGTQVTVSS,low polyreactivity
15,QVQLVESGGGLVQAGGSHRLSCAASGSIFWSYAMGWYRQAPGKARELVASISRRGGSTSYADSVKGRFTISRDNAKNTVYLQMNSLKPEDTAVYYCNAYGRQNHYYWGQGTQVTVSS,high polyreactivity
16,QVQLVESGGGLVQAGGSLRLSCAASGNTFGLYAMGWYRQAPGKDRELVATITWSVSTYADSEKGRFTISRDNAKITVYLEMNSLKPEDTAVYFCAATTGPWYWRYVYWGQGTQVTVSS,high polyreactivity
17,QVQLVESGGGLVQAGGSLRLSCAASGSIFSSNTMGWYRQAPGKERELVAAITSGGGTYYADSVKGRFTISRDNAKNTVYLQMNSLKPEDTAVYYCAAQRDYKSSPSYDYWGQGTQVNVSS,low polyreactivity
18,QVQLVESGGGLVQAGGSLRLSCAASGRTFWTYTMGWYRQAPGKEREFVAAITFGDGSTSYADSVKGRFTISRDNAKNTVYLQMNSLKPEDTAVYSCAKRWRRRFVDVWSLYDYWGQGTQVTVSS,low polyreactivity
19,QVQLVESVGGLVQAGGSLRISCAASGRITQIYAMGWSRQAPRKEWELVARITSTDSTYYADSVKGRFTISRDNAKKTVYLKMNSLTPEDTAVYYCAASWWSPYDYWGQGTQVTVSS,low polyreactivity
20,QVQLVESGGGLVQAGGSLRLSCAASGRIFLGHDMGWYRQAPGKERELVATISSSGDSTYYADSVKGRFTISRDNAKNTVYLQMNSLKPEDTAVYYCAVKSTDVPVRGSPYDYWGQGTQVTVSS,low polyreactivity
21,QVQLQESGGGVQAGGSLRLSCAASGSISAPILMGWYRQAPGKERELVAGIGGGANTYYADSVKGRFTFSRDNAKYTVYLQMYSLKPEDTAVYYCAAGDYYWTNFGYWGQGTQVTASS,high polyreactivity
22,QVQLVESGGGLVQAGGSLRLSCAASGSIFDSYAMGWYRQAPGKERELVATINTSGGSTYYADSVKGRFTIHDNAKNTVYLQKNSLKPEDTAVYYCNAGRWVYWQNNFGDYGYWGQGTQVTVSS,low polyreactivity

row,Sequence,polyreactivity (PSR sort gate)
1,QDQLVESGGGLVQAGGSLRLSCAASGSISWVYSMGWYRQAPGKEREFVAAISESGDTYYADSVKGRFTISRDNAKNTVYLQMNSLKPEDTAVYYCAATSPDGVTYDYWGHGTQVTVSS,low polyreactivity
2,QVQLVESGGGLVQAGGSLRLSCAASGSTFDAYAMGWYRPAPGTERELVAGISTSGGSTYYADSVKGRFTISRDNAKYTVVLQMNSMIPEVYAVYYCGAGVFRYVDRYGDMEYWGQGTQVTVSS,low polyreactivity
3,QVQLVESGGGLVQAGGSLRLSCAPSGRTFDQYAMGWYRQAPGKERELVADITWSGGTTRYADSVKGRFTISRDHAKNTVYLQMNSLKPEDTAVYYCAVEVTWGYNYWGQVTQVTVSS,low polyreactivity
4,QVQLVESGGGLVQAGGSLRLSCSASGSIFGYYGMGLYRQAPGKERELVATISWSGDSTNYADSVKGRFTISRDNAKNTVYLQMNSLKPEDTAVYYCAAEWHAGWGGWLRYRHYEYWGQRTQVTVSS,low polyreactivity
5,QVQLVESGGGLVQAGGSLRLSCAASGLTFGSYAMGWYRQAPGKERELVAAISRSGGSTYYADSVKGRFTISRDNAKNTVYLQMNSLKPEDTAVYYCNAVNPYYAPTDRRVGYDYWGQGTQVTVSS,high polyreactivity
6,QVQLVESGGGLVQAGGSLRLSCAASRIIFWFYAMGWYRQAPGKERELVAAISGDGDSTYYADSVKGRFTISRDNAKNTVYLQMNSLIPEDTAVYYCAAEWDPVFATDEDDYWGQGTQVTVSS,low polyreactivity
7,QVQLVESGGGLVQAGGSLRLSCAASGRNFPLNAMGWYRQAPWKERELVAAISIGGSTYYADSVKGRFTISRDNPKNTVYLQMNSLKPDETAVYYCAAVWYTSRQKYDYWGQGTQVTVSS,low polyreactivity
8,QVQLVESGGGLVQAGGSLRLSCAASGRIFKRYTMGWYRQAPGKERELVAGITFSGGSTYYADSVKGRFTISRDNAKNTVYLQMHSLKPEDTAVYDCNARVPPQGWGPWKAFDYWGQGTQVTVSS,low polyreactivity
9,QVQLVESGGGLVQAGGSLRLSCAASGSTFEIYAMGWYRQAPGKERELVAAISSGGSTNYADSVKGRFTISRDNAKNTVYLQMNSLKPEDTAVYYCVYAIQFDYWGQGTQVTVSS,low polyreactivity
10,QVQLVESGGGLVQAGGSLRLSCAASGRIFTVYGMGWYRQAPGKERELVAAISWSGGGTYYADSVKGRFTISRDNAKNTVYLHMNSLKPEDTAVYYCNADRQYTWSLVFFSSDYDYWGQGTQVTVSS,low polyreactivity
11,QVQLVESGGGLVQAGGSLRLSCAASGRMFRWYAMGWYRPAPGKERELVAAITSGGSTNYADSVKGRFTISRDNAKNTVYLKMNSLKPEDTAVYYCAARWKFPSSFYYWGQGTQVTVSS,high polyreactivity
12,QVQIVESGGGLVQAGGSLRLSCAASGSIFFIYGMGWYRQAPVKERELVARIRVSGDSTYYADSVKGRFTISRDNAKNTVYVQMNSLKPVDTAVYYCNARSLWGYGYWGQCTQVTVSS,high polyreactivity
13,QVQLVESGGGLVQAGGSLRLSCAASGFTFYYYAMGWYRQAPGKERELVAGITGSGGRTYYADSVKGRFTISRDNAKNTVYLQMNSLKPEDTAVYYCNARSLWYDYWGQGTQVTVSS,high polyreactivity
14,QVQLVESGGGLVQAGGSLRLSCAASGRIFSKNAMGWYRPAPGKERELVAAISSGGSTYDADSVKGRFTISRDNAKNTVYLQMNSLKPEDTAVYYCAARKRGYYWGQGTQVTVSS,high polyreactivity
15,QVQLVESGGGLVQAGGSLRLSCAASGGTFSNYAMGWYIPAPGKERELVAAITSGGGSTYYADSVKGRFTISRDNAKNTVYLQMNSLKPEDTAVYYCAARRSSYGYWGQGTQVTVSS,high polyreactivity
16,QVQLVESGGGLVQAGGSLRLCCAASGSIFLLNAMGWYRQAPGKERELVAAISWGGGSTYYADSVKGRFTISRDNAKNTVYLQMNSLKPEDTAVYYCNASVTLGLEVDYSGQGTQVTVSS,low polyreactivity
17,QVQLVESGGGLVQAGGSLRLSCAASGSIFPSNAMGWYRQAPGKERELVATIGRGGTTNYADSVKGRFTISRDNAKNTVYLQMNSLKPEDTAVYYCNAERIWRYKYGYDYWGQGTQVTVSS,high polyreactivity
18,QFQLVESGGGLVQAGGSLRLSCAASGIIFAQYTMGWYRQAPGKDRELGAAINRNGGSTYYADSVKGRFTISRDNAKNTVYLQMNSLKPEDTAVYYCIADALGFRYDYWGQGTQVTVSS,low polyreactivity
19,QVQLVESGGGLLQAGGSLRLSCAASGLIFQNYAMGSYRQAPGKEREFVATITSSGTSTYYADSVKGRFTISRDNAKNTVYLQMNSLKPEDTAVYYCAATGYWWEYDYWGQGTQVTVSS,high polyreactivity
20,QDQLVESGGGLVQAGGSLRLSCAASGSILLLNMGWYRQAPGKEMELVASIRWSGGITYYADSVKGRFTISRDNAKNTVYLQMNSLKPEDTAVYYCAARTYRYFGRYDYWGQGTQVTVSS,high polyreactivity
21,QVQLVESGGGLVQAGGSLRLSCAASGFTFKYYAMGWYRPAPGKERELVAAIRRSAGSTNYADSVKGRFTISRDNAKNTVYLQMNSLKPEDTAVYYCNTVGTRQPMDYWGQGTQVTVSS,high polyreactivity
